According to US20060257904A1:

Biological target: human recombinant prion protein (hrPrP), amino acid residues 23-231 of human PrPC (human) (UniProt P04156)
Assay: cell-based or functional assay

In the case of “α-2 macroglobulin (α2M), purified preparation”, the protection of PrP from PK degradation is reported as 4 µg, the protection of PrP from PK degradation in a mixture with tubulin is reported as 16 µg and the protection of PrP from PK proteolysis (immunoblot with mAb 34C9) is reported as 5 µg. For the same substance, the protection of rhuPrP from PK degradation, dose dependence was greater than 6 µg.
